Patent US20210309984

System: MUC5AC within type II porcine stomach mucin extract

Substance	immunoblot of MUC5AC degradation, in the presence of EDTA	immunoblot of MUC5AC degradation in type II mucin extract
ChiA C-domain (ChiA-CTD: residues 419-762), wild-type	no activity was detected	–
SsIE (residues 90-1520), E. coli strain W	no activity was detected	MUC5AC was processed into a different ˜60 kDa species
